Substrate: O=C1O[C@H]([C@@H](O)CO)C(=O)C1=O
Assay: purified protein
Conditions: 2 mM GSH

Protein	Km (50 mM sodium phosphate pH 7.4)	kcat (50 mM sodium phosphate pH 7.4)	Km (50 mM sodium phosphate pH 7.4, His6-tagged mutant)
EcGrx2 (Escherichia coli K-12) (protein) MKLYIYDHCPYCLKARMIFGLKNIPVELHVLLNDDAETPTRMVGQKQVPILQKDDSRYMPESMDIVHYVDKLDGKPLLTGKRSPAIEEWLRKVNGYANKLLLPRFAKSAFDEFSTPAARKYFVDKKEASAGNFADLLAHSDGLIKNISDDLRALDKLIVKPNAVNGELSEDDIQLFPLLRNLTLVAGINWPSRVADYRDNMAKQTQINLLSSMAI	2879 ± 640.4 µM	3.8245 s⁻¹	
EcGrx2 (Escherichia coli K-12; C12S/C9S) (protein) MKLYIYDHSPYSLKARMIFGLKNIPVELHVLLNDDAETPTRMVGQKQVPILQKDDSRYMPESMDIVHYVDKLDGKPLLTGKRSPAIEEWLRKVNGYANKLLLPRFAKSAFDEFSTPAARKYFVDKKEASAGNFADLLAHSDGLIKNISDDLRALDKLIVKPNAVNGELSEDDIQLFPLLRNLTLVAGINWPSRVADYRDNMAKQTQINLLSSMAI			968 (±462.3) µM

From article doi:10.1101/2021.08.28.458008v1
